Reference: US6132730
Several values for one entry are separate records, joined by “and”; a condition that tells them apart may be missing. Equal entries are not always repeated. Where two headings read alike, the source gives them in different places.

Tests used:
[1] = molecular target: I-A^d (MHC Class II antigen) on A20 mouse B-lymphoma cells (mouse) (UniProt P04228)
[2] = molecular target: truncated Tissue Factor tTF219 (extracellular domain of the mature Tissue Factor protein, amino acids 1-219) (human)
[3] = molecular target: truncated Tissue Factor tTF219 (extracellular domain of the mature Tissue Factor protein, amino acids 1-219) (human); remark: listed apart in the source
[4] = molecular target: truncated Tissue Factor tTF219 (extracellular domain of the mature Tissue Factor protein, amino acids 1-219) (human); remark: listed apart in the source
H6-tTF221-cys-C' (human) [5] = molecular target: H6-tTF221-cys-C' (human)
[6] = molecular target: IgG-H6-N'-cys-tTF219 (human)
[7] = molecular target: truncated Tissue Factor tTF219 (extracellular domain of the mature Tissue Factor protein, amino acids 1-219) (human); remark: listed apart in the source
[8] = molecular target: H6-N'-cys-tTF219 dimer (human)
[9] = molecular target: truncated Tissue Factor tTF219 (extracellular domain of the mature Tissue Factor protein, amino acids 1-219) (human); remark: listed apart in the source
H6-tTF221-cys-C' (human) [10] = molecular target: H6-tTF221-cys-C' (human); remark: listed apart in the source

clotting time of citrated mouse plasma on A20 cells [1]: 36 s | clotting time of citrated mouse plasma on A20 cells [2]: 36 s | tTF concentration at which plasma coagulated in 50 seconds (A20 cells coated with B21-2/10H10) [3]: 3 nM | tTF concentration at which plasma coagulated in 50 seconds (A20 cells coated with B21-2/10H10) (tTF220-cys-C' (human)): 500 pM | tTF concentration at which plasma coagulated in 50 seconds (A20 cells coated with B21-2/10H10) [4]: 500 pM | tTF concentration at which plasma coagulated in 50 seconds (A20 cells coated with B21-2/10H10) (H6-tTF221-cys-C' (human) [5]): 500 pM | tTF concentration at which plasma coagulated in 50 seconds (A20 cells coated with B21-2/10H10) (tTF221-cys-C' (human)): 500 pM | tTF concentration at which plasma coagulated in 50 seconds (A20 cells coated with B21-2/10H10) (H6-tTF220-cys-C' (human)): 500 pM | tTF concentration at which plasma coagulated in 50 seconds (A20 cells coated with B21-2/10H10) (H6-N'-cys-tTF219 (human)): 3 nM | tTF concentration at which plasma coagulated in 50 seconds (A20 cells coated with B21-2/10H10) (H6-tTF219-cys-C' (human)): 3 nM | tTF concentration at which plasma coagulated in 50 seconds (A20 cells coated with B21-2/10H10) [6]: 5 nM | tTF concentration at which plasma coagulated in 50 seconds (A20 cells coated with B21-2/10H10) [7]: 1 nM | tTF concentration at which plasma coagulated in 50 seconds (A20 cells coated with B21-2/10H10) [8]: 100 pM and 200 pM | tTF concentration at which plasma coagulated in 50 seconds (A20 cells coated with B21-2/10H10) [9]: 100 pM | tTF concentration at which plasma coagulated in 50 seconds (A20 cells coated with B21-2/10H10) (H6-tTF221-cys-C' (human) [10]): 1 nM
Substance: B21-2/10H10 bispecific antibody (Fab' arm of B21-2 linked to Fab' arm of 10H10)
